Measurements taken from paper PMC3020742 (The Journal of Biological Chemistry, 2010).

B1: Renilla luciferase-tagged IRAK4 DD (residues 1-106) (domain or fragment)
chain: MNKPITPSTYVRCLNVGLIRKLSDFIDPQEGWKKLAVAIKKPSGDDRYNQFHIRRFEALLQTGKSPTSELLFDWGTTNCTVGDLVDLLIQNEFFAPASLLLPDAVP
B2: MyD88 R98C DD, purified from bacteria (domain or fragment)
chain: SLPLAALNMRVRRRLSLFLNVRTQVAADWTALAEEMDFEYLEIRQLETQADPTGRLLDAWQGRPGASVGRLLELLTKLGCDDVLLELGPSI

What was measured:
[1] = target: MyD88 S34Y DD-ID (residues 1-156), Protein A-tagged (LUMIER) (human, UniProt Q99836 1-156, S34Y); test: LUMIER
MyD88 S34Y DD-ID (residues 1-156), Protein A-tagged (LUMIER), sequence (Q99836 1-156 S34Y): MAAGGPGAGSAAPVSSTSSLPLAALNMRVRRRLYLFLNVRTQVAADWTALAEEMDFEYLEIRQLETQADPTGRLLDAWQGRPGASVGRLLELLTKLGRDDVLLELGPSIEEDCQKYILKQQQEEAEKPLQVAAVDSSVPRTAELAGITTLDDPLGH

[2] = target: MyD88 R98C DD-ID (residues 1-156), Protein A-tagged (LUMIER) (human, UniProt Q99836 1-156, R98C); test: LUMIER
MyD88 R98C DD-ID (residues 1-156), Protein A-tagged (LUMIER), sequence (Q99836 1-156 R98C): as the sequence (Q99836 1-156 S34Y) above, with Y34S, R98C counted along it

[3] = target: the molecule itself; test: SEC

| Binder | fold reduction of binding against WT DD [1] | fold reduction of binding against WT DD [2] | stoichiometry N [3] |
| --- | --- | --- | --- |
| B1 | > 10 fold | > 10 fold | – |
| B2 | – | – | 2 |
